Experimental data: patent US20080248034A1 (MORPHOTEK, published 2008)

B2: Fc-TEM1 (soluble recombinant endosialin: full-length TEM1 extracellular domain fused to monomeric murine IgG2b Fc) (Fc fusion, human)
chain: QDPWAAEPRAACGPSSCYALFPRRRTFLEAWRACRELGGDLATPRTPEEAQRVDSLVGAGPASRLLWIGLQRQARQCQLQRPLRGFTWTTGDQDTAFTNWAQPASGGPCPAQRCVALEASGEHRWLEGSCTLAVDGYLCQFGFEGACPALQDEAGQAGPAVYTTPFHLVSTEFEWLPFGSVAAVQCQAGRGASLLCVKQPEGGVGWSRAGPLCLGTGCSPDNGGCEHECVEEVDGHVSCRCTEGFRLAADGRSCEDPCAQAPCEQQCEPGGPQGYSCHCRLGFRPAEDDPHRCVDTDECQIAGVCQQMCVNYVGGFECYCSEGHELEADGISCSPAGAMGAQASQDLGDELLDDGEDEEDEDEAWKAFNGGWTEMPGILWMEPTQPPDFALAYRPSFPEDREPQIPYPEPTWPPPLSAPRVPYHSSVLSVTRPVVVSATHPTLPSAHQPPVIPATHPALSRDHQIPVIAANYPDLPSAYQPGILSVSHSAQPPAHQPPMISTKYPELFPAHQSPMFPDTRVAGTQTTTHLPGIPPNHAPLVTTLGAQLPPQAPDALVLRTQATQLPIIPTAQPSLTTTSRSPVSPAHQISVPAATQPAALPTLLPSQSPTNQTSPISPTHPHSKAPQIPREDGPSPKLALWLPSPAPTAAPTALGEAGLAEHSQRDDRWLDDDD
notes: extracellular domain; Monomeric secreted fusion protein made in CHO cells; also called TEM1-Fcγ; not shown: murine IgG2b Fcγ domain (hinge through CH3), modified: the four cysteine residues responsible for inter-heavy chain disu

What was measured:
[1] = biological target: B2; assay: ELISA on coated FN fragments (FIG. 7A)
[2] = biological target: T1, 120 kDa fibronectin fragment containing the cell attachment domain (UniProt P02751-1 722-1635, limits assumed); assay: ELISA on coated FN fragments (FIG. 7A)
T1 construct: domain: 120 kDa fragment containing the cell attachment domain; Bought fragment; also called the 120 kDa fragment; 120 kDa cell attachment FN-fragment

[3] = biological target: B2; assay: antigen-specific ELISA, coated at 0.2 ug/ml (FIG. 4B)
[4] = biological target: T2, murine TEM-1 (in mouse 2H11 cells) (mouse, UniProt Q91V98 18-765); assay: Western blot of cell lysates (FIG. 15)
T2 construct: Endogenous protein in lysate of mouse 2H11 cells, on a Western blot; also called murine endosialin
T2 sequence: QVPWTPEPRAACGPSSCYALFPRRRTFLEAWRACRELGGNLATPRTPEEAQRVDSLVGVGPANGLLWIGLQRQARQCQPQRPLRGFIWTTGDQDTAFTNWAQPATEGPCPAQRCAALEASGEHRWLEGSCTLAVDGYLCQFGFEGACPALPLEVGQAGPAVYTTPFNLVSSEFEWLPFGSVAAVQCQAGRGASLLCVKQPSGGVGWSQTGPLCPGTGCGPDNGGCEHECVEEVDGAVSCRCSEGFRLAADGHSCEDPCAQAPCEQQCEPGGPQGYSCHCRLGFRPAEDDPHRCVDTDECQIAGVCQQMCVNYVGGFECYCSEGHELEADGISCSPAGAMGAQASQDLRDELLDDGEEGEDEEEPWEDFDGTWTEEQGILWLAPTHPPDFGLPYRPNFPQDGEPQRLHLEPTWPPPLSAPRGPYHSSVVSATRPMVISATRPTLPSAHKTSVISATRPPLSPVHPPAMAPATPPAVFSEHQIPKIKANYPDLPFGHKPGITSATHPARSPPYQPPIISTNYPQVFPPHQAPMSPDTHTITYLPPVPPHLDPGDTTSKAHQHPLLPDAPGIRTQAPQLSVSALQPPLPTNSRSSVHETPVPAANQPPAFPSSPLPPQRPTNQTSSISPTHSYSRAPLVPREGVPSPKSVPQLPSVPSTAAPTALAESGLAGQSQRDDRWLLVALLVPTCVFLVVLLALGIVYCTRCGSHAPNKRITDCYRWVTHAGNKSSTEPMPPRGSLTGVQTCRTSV

[5] = biological target: B2; assay: antigen-specific ELISA, coated at 2 ug/ml (FIG. 4B)

T1 sequence (P02751 other isoform, or with tags, fused parts or gaps limits assumed): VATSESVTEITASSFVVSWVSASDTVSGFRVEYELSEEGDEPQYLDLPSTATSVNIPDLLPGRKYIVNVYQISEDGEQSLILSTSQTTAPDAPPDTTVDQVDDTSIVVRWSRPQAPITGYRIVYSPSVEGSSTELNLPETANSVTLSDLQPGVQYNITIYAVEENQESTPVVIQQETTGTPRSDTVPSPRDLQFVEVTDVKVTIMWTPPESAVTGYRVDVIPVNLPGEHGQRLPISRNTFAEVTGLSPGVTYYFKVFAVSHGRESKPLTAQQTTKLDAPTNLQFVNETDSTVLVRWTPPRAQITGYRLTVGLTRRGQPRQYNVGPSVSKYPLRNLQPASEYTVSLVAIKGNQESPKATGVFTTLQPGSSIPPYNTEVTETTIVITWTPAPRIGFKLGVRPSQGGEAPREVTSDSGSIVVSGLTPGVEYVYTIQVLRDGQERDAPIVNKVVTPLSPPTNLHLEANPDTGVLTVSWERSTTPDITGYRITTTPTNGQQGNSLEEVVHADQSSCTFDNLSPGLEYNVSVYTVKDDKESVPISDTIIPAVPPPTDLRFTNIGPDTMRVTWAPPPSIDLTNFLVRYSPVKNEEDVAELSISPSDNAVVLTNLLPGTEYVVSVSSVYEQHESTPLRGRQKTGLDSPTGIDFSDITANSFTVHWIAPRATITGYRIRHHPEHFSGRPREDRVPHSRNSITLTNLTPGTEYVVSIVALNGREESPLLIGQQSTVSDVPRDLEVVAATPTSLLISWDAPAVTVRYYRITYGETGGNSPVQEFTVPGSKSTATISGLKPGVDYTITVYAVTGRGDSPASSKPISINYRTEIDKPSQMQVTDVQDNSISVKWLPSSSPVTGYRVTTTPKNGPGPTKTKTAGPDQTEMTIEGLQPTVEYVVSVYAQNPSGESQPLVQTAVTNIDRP

B1: recombinant human fibronectin fragment 2 (Fn2) (other)
chain: SSSGPVEVFITETPSQPNSHPIQWNAPQPSHISKYILRWRPKNSVGRWKEATIPGHLNSYTIKGLKPGVVYEGQLISIQQYGHQEVTRFDFTTTSTSTPVTSNTVTGETTPFSPLVATSESVTEITASSFVVSWVSASDTVSGFRVEYELSEEGDEPQYLDLPSTATSVNIPDLLPGRKYIVNVYQISEDGEQSLILSTSQTTAPDAPPDPTVDQVDDTSIVVRWSRPQAPITGYRIVYSPSVEGSSTELNLPETANSVTLSDLQPGVQYNITIYAVEENQESTPVVIQQETTGTPRSDTVPSPRDLQFVEVTDVKVTIMWTPPESAVTGYRVDVIPVNLPGEHGQRLPISRNTFAEVTGLSPGVTYYFKVFAVSHGRESKPLTAQQTTKLDAPTNLQFVNETDSTVLVRWTPPRAQITGYRLTVGLTRRGQPRQYNVGPSVSKYPLRNLQPASEYTVSLVAIKGNQESPKATGVFTTLQPGSSIPPYNTEVTETTIVITWTPAPRIGFKLGVRPSQGGEAPREVTSDSGSIVVSGLTPGVEYVYTIQVLRDGQERDAPIVNKVVTPLSPPTNLHLEANPDTGVLTVSWERSTTPDITGYRITTTPTNGQQGNSLEEVVHADQSSCTFDNLSPGLEYNVSVYTVKDDKESVPISDTIIP
notes: Bought (R&D Systems)
binding result [1]: no binding (tested: 1.25 ug/ml)

B2
binding result [2]: no binding (tested: 1.25 ug/ml)

B3: human mesothelin (other, UniProt Q13421 296-598, looked up)
chain: EVEKTACPSGKKAREIDESLIFYKKWELEACVDAALLATQMDRVNAIPFTYEQLDVLKHKLDELYPQGYPESVIQHLGYLFLKMSPEDIRKWNVTSLETLKALLEVNKGHEMSPQVATLIDRFVKGRGQLDKDTLDTLTAFYPGYLCSLSPEELSSVPPSSIWAVRPQDLDTCDPRQLDVLYPKARLAFQNMNGSEYFVKIQSFLGGAPTEDLKALSQQNVSMDLATFMKLRTDAVLPLTVAEVQKLLGPHVEGLKAEERHRPVRDWILRQRQDDLDTLGLGLQGGIPNGYLVLDLSMQEALS
binding result [3]: no binding (tested: 5, 10, 50 ug/ml)

B4: M4.1 (humanized antibody to human endosialin) (antibody, human IgG1, kappa)
heavy: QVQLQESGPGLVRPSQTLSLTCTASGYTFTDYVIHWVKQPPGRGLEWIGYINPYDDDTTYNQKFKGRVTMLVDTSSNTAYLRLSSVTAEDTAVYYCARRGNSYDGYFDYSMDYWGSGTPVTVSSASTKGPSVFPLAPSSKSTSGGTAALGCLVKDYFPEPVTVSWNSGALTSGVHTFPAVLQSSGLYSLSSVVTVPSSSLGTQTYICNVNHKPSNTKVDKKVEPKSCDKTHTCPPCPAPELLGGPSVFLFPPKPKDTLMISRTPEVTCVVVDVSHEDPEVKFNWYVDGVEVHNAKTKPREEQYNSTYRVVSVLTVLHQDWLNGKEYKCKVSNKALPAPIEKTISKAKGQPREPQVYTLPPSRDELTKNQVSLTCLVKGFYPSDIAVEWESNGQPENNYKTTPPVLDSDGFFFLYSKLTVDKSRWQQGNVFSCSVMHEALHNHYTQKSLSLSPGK
light: DIQMTQSPSSLSASVGDRVTITCRASQNVGTAVAWLQQTPGKAPKLLIYSASNRYTGVPSRFSGSGSGTDYTFTISSLQPEDIATYYCQQYTNYPMYTFGQGTKVQIKRTVAAPSVFIFPPSDEQLKSGTASVVCLLNNFYPREAKVQWKVDNALQSGNSQESVTEQDSKDSTYSLSSTLTLSKADYEKHKVYACEVTHQGLSSPVTKSFNRGEC
notes: also called antibody M4.1
binding result [4]: no binding (tested: 3.3 ug/mL)

B5: recombinant human fibronectin fragment 4 (Fn4) (other)
chain: VTDATETTITISWRTKTETITGFQVDAVPANGQTPIQRTIKPDVRSYTITGLQPGTDYKIYLYTLNDNARSSPVVIDASTAIDAPSNLRFLATTPNSLLVSWQPPRARITGYIIKYEKPGSPPREVVPRPRPGVTEATITGLEPGTEYTIYVIALKNNQKSEPLIGRKKTDELPQLVTLPHPNLHGPEILDVPSTVQKTPFVTHPGYDTGNGIQLPGTSGQQPSVGQQMIFEEHGFRRTTPPTTATPIRHRPRPYPPNVGEEIQIGHIPREDVDYHLYPHGPGLNPNASTGQEALSQTTISWAPFQDTSEYIISCHPVGTDEEPLQFRVPGTSTSATLTGLTRGATYNIIVEALKDQQRHKVREEVVTVGNSVNEGLNQPTDDSCFDPYTVSHYAVGDEWERMSESGFKLLCQCLGFGSGHFRCDSSRWCHDNGVNYKIGEKWDRQGENGQMMSCTCLGNGKGEFKCDPHEATCYDDGKTYHVGEQWQKEYLGAICSCTCFGGQRGWRCDNCRRPGGEPSPEGTTGQSYNQYSQRYHQRTNTNVNCPIECFMPLDVQADREDSRE
notes: Bought (R&D Systems)
binding result [1]: no binding (tested: 1.25 ug/ml)

B6: ovalbumin (OVA) (other, UniProt P01012 2-386, looked up)
chain: GSIGAASMEFCFDVFKELKVHHANENIFYCPIAIMSALAMVYLGAKDSTRTQINKVVRFDKLPGFGDSIEAQCGTSVNVHSSLRDILNQITKPNDVYSFSLASRLYAEERYPILPEYLQCVKELYRGGLEPINFQTAADQARELINSWVESQTNGIIRNVLQPSSVDSQTAMVLVNAIVFKGLWEKAFKDEDTQAMPFRVTEQESKPVQMMYQIGLFRVASMASEKMKILELPFASGTMSMLVLLPDEVSGLEQLESIINFEKLTEWTSSNVMEERKIKVYLPRMKMEEKYNLTSVLMAMGITDVFSSSANLSGISSAESLKISQAVHAAHAEINEAGREVVGSAEAGVDAASVSEEFRADHPFLFCIKHIATNAVLFFGRCVSP
binding result [5]: no binding (tested: 5, 10, 50 ug/ml)
